Assay [1] concerns the target recombinant Fasciola hepatica cytosolic Cu/Zn superoxide dismutase (rFhSOD1) (Fasciola hepatica). The assay can be described thus: SEC; Superdex 75 10/300 GL column, 400 uL/min, eluted into 1x PBS; standards conalbumin (76 kDa), carbonic anhydrase (29 kDa), aprotinin (6.5 kDa). In general terms: Size exclusion chromatography separates by hydrodynamic size, large species first.

Assay [2] addresses recombinant Fasciola hepatica extracellular Cu/Zn superoxide dismutase (rFhSOD3), signal peptide removed (Fasciola hepatica). The description is as above.

As usually defined, the stoichiometry N is the number of molecules, sites or subunits per partner or assembly.

Several values for one entry are separate records, joined by “and”; a condition that tells them apart may be missing. Equal values may be shown once.

Take “recombinant Fasciola hepatica cytosolic Cu/Zn superoxide dismutase (rFhSOD1) (enzyme)”: the stoichiometry N in assay [1] is 2.

With “recombinant Fasciola hepatica extracellular Cu/Zn superoxide dismutase (rFhSOD3), signal peptide removed (enzyme)”, the stoichiometry N in assay [2] was 2 and 4.

(Values after publication PMC9598480.)
